Assay results: article PMC7156710

Columns and labels:
[1] = target: Sox2 full length (Homo sapiens) (UniProt P48431); test: fluorescence anisotropy; details: 10 mM Tris-HEPES pH 7.5, 135 mM KCl, 15 mM NaCl, 1 mM DTT, 8% Ficoll, 0.05% NP-40, 0.1 mg/mL BSA; 2 nM DNA or 3 nM RNA; room temperature (stated for …)
[2] = target: Sox2 full length (Homo sapiens) (UniProt P48431); test: FP; details: 10 mM Tris-HEPES pH 7.5, 8% Ficoll, 0.05% NP-40, 135 mM KCl, 15 mM NaCl, 1 mM DTT, 0.1 mg/mL BSA; 2 nM DNA or 3 nM RNA; low values mean tight binding
[3] = target: Sox2-HMG (thrombin cleaved) (Homo sapiens) (UniProt P48431); test: FP; details: 10 mM Tris-HEPES pH 7.5, 8% Ficoll, 0.05% NP-40, 135 mM KCl, 15 mM NaCl, 1 mM DTT, 0.1 mg/mL BSA; 2 nM DNA or 3 nM RNA; low values mean tight binding
Sequence of Sox2-HMG (thrombin cleaved) (Homo sapiens) (P48431 other isoform, or with tags, fused parts or gaps): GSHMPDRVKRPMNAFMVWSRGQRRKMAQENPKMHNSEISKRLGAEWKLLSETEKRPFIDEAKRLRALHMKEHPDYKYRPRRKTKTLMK

[4] = target: Sox2-HMG (Homo sapiens) (UniProt P48431); test: fluorescence anisotropy; details: 10 mM Tris-HEPES pH 7.5, 135 mM KCl, 15 mM NaCl, 1 mM DTT, 8% Ficoll, 0.05% NP-40, 0.1 mg/mL BSA; 2 nM DNA or 3 nM RNA; room temperature (stated for …)
Sequence of Sox2-HMG (Homo sapiens) (P48431 40-123): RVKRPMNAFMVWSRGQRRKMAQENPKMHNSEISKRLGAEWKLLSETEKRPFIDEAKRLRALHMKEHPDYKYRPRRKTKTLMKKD

Sequence of Sox2 full length (Homo sapiens) (P48431 whole entry): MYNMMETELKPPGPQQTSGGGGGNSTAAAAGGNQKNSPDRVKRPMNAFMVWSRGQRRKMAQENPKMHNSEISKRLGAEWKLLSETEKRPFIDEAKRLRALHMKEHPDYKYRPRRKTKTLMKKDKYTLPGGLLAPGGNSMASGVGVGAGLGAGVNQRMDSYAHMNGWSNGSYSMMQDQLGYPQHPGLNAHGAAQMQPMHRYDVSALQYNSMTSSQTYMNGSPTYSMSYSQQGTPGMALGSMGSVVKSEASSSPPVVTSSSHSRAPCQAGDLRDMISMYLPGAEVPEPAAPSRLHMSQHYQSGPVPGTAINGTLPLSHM

Row | Substance | binding signal (fold weaker than FGF4) [1] | Kd [2] [nM] | Kd [3] [nM] | Kd [4] [nM]
1 | ssDNA with consensus site | > 200 |  |  | 
2 | dsDNA w/o binding site | > 200 |  |  | 
3 | GGAAGAAGUGAAAUCACUAUAUUUAGAAACGAAUGCUACCAUCCCACCCCAACUACAUGUUCAGGUUAAAUGCGUGCACAUCCUGGUAGCUGGAACAUCUGUUUCUAGCUUGUUGUUCCUCUUGGCUGCUUUUCAAUUGGAUUUCCUCGAGCAGGUCCCAGGCUUGUCACUGCAGCCAGGGUCUGUUAACCAUCACCACUGGUUCUACAUUAAGUAGGAGGUUCAGGGCUAAGCUAAUAACUCGCCUGCCUUUCUGACUGAUCACAGUGAUGUUCGCCGUGGCCACUUAUCAUGCGGGCUCCUUUGGGAGGGUGCUCUUCUUUGUCUGUACCUCUGGGUGGAAAGGGCGAAUUC [ES2 lncRNA 1-354] |  | 17.5 | 25.6 | 26
